According to IntAct's records for PubMed 29039417:

B1: Isoform 2 of Bardet-Biedl syndrome 7 protein (Homo sapiens), Q8IWZ6-2 (parent)
chain: MDLILNRMDYLQVGVTSQKTMKLIPASRHRATQKVVIGDHDGVVMCFGMKKGEAAAVFKTLPGPKIARLELGGVINTPQEKIFIAAASEIRGFTKRGKQFLSFETNLTESIKAMHISGSDLFLSASYIYNHYCDCKDQHYYLSGDKINDVICLPVERLSRITPVLACQDRVLRVLQGSDVMYAVEVPGPPTVLALHNGNGGDSGEDLLFGTSDGKLALIQITTSKPVRKWEIQNEKKRGGILCIDSFDIVGDGVKDLLVGRDDGMVEVYSFDNANEPVLRFDQMLSESVTSIQGGCVGKDSYDEIVVSTYSGWVTGLTTEPIHKESGPGEELKINQEMQNKISSLRNELEHLQYKVLQERENYQQSSQSSKAKSAVPSFGINDKFTLNKDDASYSLILEVQTAIDNVLIQSDVPIDLLDVDKNSAVVSFSSCDSESNDNFLLATYRCQADTTRLELKIRSIEGQYGTLQAYVTPRIQPKTCQVRQYHIKPLSLHQRTHFIDHDRPMNTLTLTGQFSFAEVHSWVVFCLPEVPEKPPAGECVTFYFQNTFLDTQLESTYRKGEGVFKSDNISTISILKDVLSKEATKRKINLNISYEINEVSVKHTLKLIHPKLEYQLLLAKKVQLIDALKELQIHEGNTNFLIPEYHCILEEADHLQEEYKKQPAHLERLYG
partner: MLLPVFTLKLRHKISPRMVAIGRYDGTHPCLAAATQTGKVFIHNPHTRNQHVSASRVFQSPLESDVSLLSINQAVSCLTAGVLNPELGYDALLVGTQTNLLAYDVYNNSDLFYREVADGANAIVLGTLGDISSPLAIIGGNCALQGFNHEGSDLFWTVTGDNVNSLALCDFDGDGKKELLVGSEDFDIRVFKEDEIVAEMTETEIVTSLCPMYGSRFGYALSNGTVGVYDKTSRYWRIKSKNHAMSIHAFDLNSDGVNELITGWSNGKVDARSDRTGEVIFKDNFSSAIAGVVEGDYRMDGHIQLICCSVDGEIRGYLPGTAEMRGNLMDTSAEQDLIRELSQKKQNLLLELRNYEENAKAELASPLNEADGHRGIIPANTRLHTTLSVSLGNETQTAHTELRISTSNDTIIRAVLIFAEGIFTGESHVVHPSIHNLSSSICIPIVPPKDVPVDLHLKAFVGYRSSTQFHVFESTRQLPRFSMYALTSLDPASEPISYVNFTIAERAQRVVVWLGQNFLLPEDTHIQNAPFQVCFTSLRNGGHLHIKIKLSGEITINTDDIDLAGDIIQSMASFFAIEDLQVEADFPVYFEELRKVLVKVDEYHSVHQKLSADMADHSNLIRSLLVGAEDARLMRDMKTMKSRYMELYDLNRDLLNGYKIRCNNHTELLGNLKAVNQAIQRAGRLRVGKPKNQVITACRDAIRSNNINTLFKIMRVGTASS

Variants of: B1
Conditions: with bbs2_human BBS2, Q9BXC9

Effect of a mutation on the interaction, with no effect:
D416A
D416E
D416K
A443K
R459A
R459E
R459K
K457E
K457A
S460E
S460A
S460K
D421E
D421K
D421A
S436K
S436A
S436E
L442K
L442A
L442E
Q448A
Q448E
I404E
I404K
I404A
N423A
N423E
N423K
V420K
V420E
V420A
P414E
P414A
P414K
L454A
L454K
L454E
S431A
S431K
S431E
E435A
E435K
R446A
R446E
R446K
D405A
D405K
D405E
S428K
S428E
S428A
V427K
V427E
V427A
A403K
I415E
I415A
I415K
C447K
C447E
C447A
V407E
V407K
V407A
T452E
T452A
T452K
F429K
F429E
F429A
D433K
D433E
D433A
S434A
S434E
S434K
A449E
A449K
D450K
D450A

Effect of a mutation on the interaction, disrupting interaction strength:
A443E
L442P
Q448K
I458E
I458A
I458Q
I458K
C447Y
A449T

Variants of: B1
Conditions: with bbs2_human BBS2, Q9BXC9
Remark: another data set of the same source

Effect of a mutation on the interaction, with no effect:
I458E
